Source: PMC8211825, “Molecular mechanism of calcium induced trimerization of C1q-like domain of otolin-1 from human and zebrafish” (Scientific Reports, 2021)
Residue numbers refer to the chain shown, from its start. In names and notes the source's numbering stands. Several values for one entry are separate records, joined by “and”; a condition that tells them apart may be missing. Identical values can stand only once.

B1: C1q-like domain of otolin-1 from human (domain or fragment, UniProt A6NHN0 338-473, looked up)
chain: ARVPRSAFSAGLSKPFPPPNIPIKFEKILYNDQGNYSPVTGKFNCSIPGTYVFSYHITVRGRPARISLVAQNKKQFKSRETLYGQEIDQASLLVILKLSAGDQVWLEVSKDWNGVYVSAEDDSIFTGFLLYPEETS
notes: gC1q (C1q-like) domain of human otolin-1, UniProt A6NHN0; printed monomer MW 17.0 kDa; Subcloned in pQE-80 L; The tag is known only from TALON purification and a 6xHis Western blot; also called hOtolC1q; native hOtolC1q
B2: hOtolC1q E470A (domain or fragment, human, UniProt A6NHN0 338-473, looked up)
chain: B1 chain with E133A
notes: gC1q (C1q-like) domain of human otolin-1, UniProt A6NHN0, natural SNP variant E470A (rs3921595); also called E470A variant; natural variant hOtolC1q E470A; source: 0.1% NP40 substitute added to the cell suspension
B3: C1q-like domain of otolin-1 from zebrafish (domain or fragment)
chain: not shown
notes: gC1q (C1q-like) domain of zebrafish otolin-1, UniProt A5PN28; printed monomer MW 17.1 kDa; Subcloned in pQE-80 L; also called dOtolC1q; native dOtolC1q

Target: the molecule itself
Assay: AUC; sedimentation velocity, c(s) analysis in SEDFIT; 10 mM CaCl2; 10 mM HEPES pH 7.0, 500 mM NaCl, 5% glycerol; 20 °C, 50,000 rpm; protein about 0.1, 0.25 and 0.5 mg/ml; self-association of the gC1q domain into trimers

| Protein | stoichiometry N |
| --- | --- |
| B1 | 3 |
| B2 | 3 |
| B3 | 2 and 3 |
